The values that follow come from patent US20060093602A1.

The test has as its target gp130 on HepG2 B6 cells (UniProt P40189). Put plainly: cell-based or functional assay.

gp130 on HepG2 B6 cells, sequence (P40189 23-918 limits assumed): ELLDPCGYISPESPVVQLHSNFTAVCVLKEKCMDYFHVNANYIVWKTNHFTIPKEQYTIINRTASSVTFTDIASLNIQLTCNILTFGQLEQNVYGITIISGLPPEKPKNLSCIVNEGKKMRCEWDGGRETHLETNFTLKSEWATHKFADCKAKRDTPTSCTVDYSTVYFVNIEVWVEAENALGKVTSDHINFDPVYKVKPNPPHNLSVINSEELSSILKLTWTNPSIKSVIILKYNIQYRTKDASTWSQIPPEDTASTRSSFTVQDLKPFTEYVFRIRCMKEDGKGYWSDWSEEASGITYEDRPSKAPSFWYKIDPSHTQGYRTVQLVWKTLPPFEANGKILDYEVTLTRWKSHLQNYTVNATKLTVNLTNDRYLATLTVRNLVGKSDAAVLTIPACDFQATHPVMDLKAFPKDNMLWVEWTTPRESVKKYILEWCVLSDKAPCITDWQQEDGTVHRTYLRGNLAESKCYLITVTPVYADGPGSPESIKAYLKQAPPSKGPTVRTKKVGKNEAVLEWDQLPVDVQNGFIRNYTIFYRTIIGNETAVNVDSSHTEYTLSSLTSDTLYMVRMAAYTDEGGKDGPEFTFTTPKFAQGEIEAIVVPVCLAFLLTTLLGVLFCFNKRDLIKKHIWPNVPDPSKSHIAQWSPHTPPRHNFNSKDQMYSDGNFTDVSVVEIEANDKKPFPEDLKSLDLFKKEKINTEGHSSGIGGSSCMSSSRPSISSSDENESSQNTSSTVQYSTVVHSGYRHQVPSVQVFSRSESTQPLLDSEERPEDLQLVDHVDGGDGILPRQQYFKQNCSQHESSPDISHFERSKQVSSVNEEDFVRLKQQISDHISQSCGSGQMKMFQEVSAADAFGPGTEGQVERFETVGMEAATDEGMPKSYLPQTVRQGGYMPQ

With “OSM-GST L13A (from UniProt P08515 1-218) (ligand)”, the EC50, sPAP, HepG2 B6, Expt 1 is 0.0657 µg/mL; the EC50, sPAP, HepG2 B6, Expt 2 was found to be 0.0549 µg/mL; the EC50 as % of wild type, sPAP, HepG2 B6, Expt 1 worked out at 269%; the EC50 as % of wild type, sPAP, HepG2 B6, Expt 2 came out at 171%. The mean EC50 as % of wild type, sPAP, HepG2 B6 worked out at 220%.
